Experimental data: the Human Domainome abundance scans (Beltran et al. 2025)
± gives the uncertainty stated by the source.

B1: Probable E3 ubiquitin-protein ligase MID2, residues 191 to 235; numbered along this chain, Q9UJV3 (parent)
chain: RGITCLDHENEKVNMYCVSDDQLICALCKLVGRHRDHQVASLNDR

Variants of: B1
Assay: abundance fitness (aPCA) (normalised: wild type 0, dead -1); higher = more abundant; growth selection in yeast, the domain comes from the species named
Conditions: Homo sapiens

Variant	abundance fitness
RGITCLDHENEKVNMYCVSDDQLICALCKLVGRHMDHQVASLNDR [R35M]	-0.024 ± 0.1
RGITCLDHENEKVNMYCVSDDQLICALCKLVGRHHDHQVASLNDR [R35H]	-0.471 ± 0.32
RGITCLDHENEKVNMYCVSDDQLICALCKLVGRHTDHQVASLNDR [R35T]	-0.195 ± 0.072
RGITCLDHENEKVNMYCVSDDQLICALCKLVGRHPDHQVASLNDR [R35P]	-0.195 ± 0.069
RGITCLDHENEKVNMYCVSDDQLICALCKLVGRHVDHQVASLNDR [R35V]	-0.05 ± 0.061
RGITCLDHENEKVNMYCVSDDQLICALCKLVGRHGDHQVASLNDR [R35G]	-0.002 ± 0.05
RGITCLDHENEKVNMYCVSDDQLICALCKLVGRHKDHQVASLNDR [R35K]	0.019 ± 0.083
RGITCLDHENEKVNMYCVSDDQLICALCKLVGRHLDHQVASLNDR [R35L]	-0.321 ± 0.068
RGITCLDHENEKVNMYCVSDDQLICALCKLVGRHQDHQVASLNDR [R35Q]	-0.11 ± 0.19
RGITCLDHENEKVNMYCVSDDQLICALCKLVGRHFDHQVASLNDR [R35F]	-0.529 ± 0.12
RGITCLDHENEKVNMYCVSDDQLICALCKLVGRHIDHQVASLNDR [R35I]	0.303 ± 0.22
RGITCLDHENEKVNMYCVSDDQLICALCKLVGRHREHQVASLNDR [D36E]	0.036 ± 0.066
RGITCLDHENEKVNMYCVSDDQLICALCKLVGRHRAHQVASLNDR [D36A]	-0.293 ± 0.085
RGITCLDHENEKVNMYCVSDDQLICALCKLVGRHRRHQVASLNDR [D36R]	-0.255 ± 0.061
RGITCLDHENEKVNMYCVSDDQLICALCKLVGRHRIHQVASLNDR [D36I]	-0.34 ± 0.4
RGITCLDHENEKVNMYCVSDDQLICALCKLVGRHRWHQVASLNDR [D36W]	-0.311 ± 0.079
RGITCLDHENEKVNMYCVSDDQLICALCKLVGRHRVHQVASLNDR [D36V]	-0.3 ± 0.07
RGITCLDHENEKVNMYCVSDDQLICALCKLVGRHRLHQVASLNDR [D36L]	-0.125 ± 0.06
RGITCLDHENEKVNMYCVSDDQLICALCKLVGRHRCHQVASLNDR [D36C]	-0.278 ± 0.067

Variant	abundance fitness
RGITCLDHENEKVNMYCVSDDQLICALCKLVGRHRQHQVASLNDR [D36Q]	-0.235 ± 0.088
RGITCLDHENEKVNMYCVSDDQLICALCKLVGRHRPHQVASLNDR [D36P]	-0.311 ± 0.074
RGITCLDHENEKVNMYCVSDDQLICALCKLVGRHRTHQVASLNDR [D36T]	-0.176 ± 0.13
RGITCLDHENEKVNMYCVSDDQLICALCKLVGRHRHHQVASLNDR [D36H]	-0.146 ± 0.28
RGITCLDHENEKVNMYCVSDDQLICALCKLVGRHRGHQVASLNDR [D36G]	-0.098 ± 0.054
RGITCLDHENEKVNMYCVSDDQLICALCKLVGRHRDHQVAFLNDR [S41F]	-0.385 ± 0.14
RGITCLDHENEKVNMYCVSDDQLICALCKLVGRHRDHQVAPLNDR [S41P]	0.061 ± 0.087
RGITCLDHENEKVNMYCVSDDQLICALCKLVGRHRDHQVAGLNDR [S41G]	-0.021 ± 0.055
RGITCLDHENEKVNMYCVSDDQLICALCKLVGRHRDHQVAHLNDR [S41H]	-0.135 ± 0.14
RGITCLDHENEKVNMYCVSDDQLICALCKLVGRHRDHQVATLNDR [S41T]	-0.001 ± 0.062
RGITCLDHENEKVNMYCVSDDQLICALCKLVGRHRDHQVAYLNDR [S41Y]	-0.502 ± 0.45
RGITCLDHENEKVNMYCVSDDQLICALCKLVGRHRDHQVANLNDR [S41N]	0.1 ± 0.35
RGITCLDHENEKVNMYCVSDDQLICALCKLVGRHRDHQVAALNDR [S41A]	-0.08 ± 0.063
RGITCLDHENEKVNMYCVSDDQLICALCKLVGRHRDHQVAKLNDR [S41K]	-0.102 ± 0.074
RGITCLDHENEKVNMYCVSDDQLICALCKLVGRHRDHQVAWLNDR [S41W]	-0.458 ± 0.1
RGITCLDHENEKVNMYCVSDDQLICALCKLVGRHRDHQVARLNDR [S41R]	-0.039 ± 0.053
RGITCLDHENEKVNMYCVSDDQLICALCKLVGRHRDHQVAILNDR [S41I]	-0.481 ± 0.16
RGITCLDHENEKVNMYCVSDDQLICALCKLVGRHRDHQVAVLNDR [S41V]	-0.298 ± 0.061
RGITCLDHENEKVNMYCVSDDQLICALCKLVGRHRDHQVADLNDR [S41D]	0.087 ± 0.074

Variant	abundance fitness
RGITCLDHENEKVNMYCVSDDQLICALCKLVGRHRDHQVALLNDR [S41L]	-0.157 ± 0.068
RGITCLDHENEKVNMYCVSDDQLICALCKLVGRHRDHQVACLNDR [S41C]	-0.071 ± 0.085
RGITCLDHENEKVNMYCVSDDQLICALCKLVGRHRDHQVAMLNDR [S41M]	-0.222 ± 0.12
RGITCLDHENEKVNMYCVSDDQLICALCKLVGRHRDHQVYSLNDR [A40Y]	-0.2 ± 0.23
RGITCLDHENEKVNMYCVSDDQLICALCKLVGRHRDHQVNSLNDR [A40N]	-0.082 ± 0.23
RGITCLDHENEKVNMYCVSDDQLICALCKLVGRHRDHQVRSLNDR [A40R]	0.014 ± 0.052
RGITCLDHENEKVNMYCVSDDQLICALCKLVGRHRDHQVDSLNDR [A40D]	0.043 ± 0.077
RGITCLDHENEKVNMYCVSDDQLICALCKLVGRHRDHQVTSLNDR [A40T]	-0.068 ± 0.12
RGITCLDHENEKVNMYCVSDDQLICALCKLVGRHRDHQVMSLNDR [A40M]	-0.216 ± 0.086
RGITCLDHENEKVNMYCVSDDQLICALCKLVGRHRDHQVKSLNDR [A40K]	-0.138 ± 0.12
RGITCLDHENEKVNMYCVSDDQLICALCKLVGRHRDHQVGSLNDR [A40G]	0.003 ± 0.052
RGITCLDHENEKVNMYCVSDDQLICALCKLVGRHRDHQVFSLNDR [A40F]	-0.176 ± 0.1
RGITCLDHENEKVNMYCVSDDQLICALCKLVGRHRDHQVHSLNDR [A40H]	-0.296 ± 0.18
RGITCLDHENEKVNMYCVSDDQLICALCKLVGRHRDHQVCSLNDR [A40C]	-0.063 ± 0.068
RGITCLDHENEKVNMYCVSDDQLICALCKLVGRHRDHQVESLNDR [A40E]	0.072 ± 0.069
RGITCLDHENEKVNMYCVSDDQLICALCKLVGRHRDHQVQSLNDR [A40Q]	0.09 ± 0.076
RGITCLDHENEKVNMYCVSDDQLICALCKLVGRHRDHQVPSLNDR [A40P]	-0.415 ± 0.095
RGITCLDHENEKVNMYCVSDDQLICALCKLVGRHRDHQVSSLNDR [A40S]	0.063 ± 0.057
RGITCLDHENEKVNMYCVSDDQLICALCKLVGRHRDHQVWSLNDR [A40W]	-0.155 ± 0.07
